Assay results as given in US20160289331A1 (NATIONAL UNIVERSITY CORP HOKKAIDO UNIVERSITY, published 2016).
One block for each molecule: values may come before it.

What was measured:
[1] = target: mDR6 expressed on mouse T cells (DO11.10-T cells, splenocytes) (mouse) (UniProt Q9EPU5); experiment: cell-based or functional assay
[2] = target: T1, mouse Sdc1 (mSdc1) expressed on cells (mouse, UniProt P18828 18-311, heparan sulfate is bound at position 45 and position 47); experiment: binding of labeled Fc fusions to DO11.10-T cells expressing mSdc1
T1 construct: On DO11.10-T or A20 cells transformed with pMXsIG/mSdc1, and endogenous on A20 cells (shRNA experiment); also called mouse syndecan-1; CD138
T1 sequence: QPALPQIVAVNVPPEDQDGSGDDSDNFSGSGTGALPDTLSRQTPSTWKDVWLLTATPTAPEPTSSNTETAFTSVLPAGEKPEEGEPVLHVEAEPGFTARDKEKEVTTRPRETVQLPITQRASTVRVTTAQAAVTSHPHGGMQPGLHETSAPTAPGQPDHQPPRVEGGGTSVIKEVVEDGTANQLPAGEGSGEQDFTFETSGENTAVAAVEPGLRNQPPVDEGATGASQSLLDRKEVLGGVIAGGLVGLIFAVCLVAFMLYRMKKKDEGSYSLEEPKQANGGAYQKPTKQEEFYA
Source text: An expression vector (pMXsIG/mSdc1) into which a gene encoding mSdc1 (SEQ ID NO: 7) was incorporated in an expressible manner, and a control vector (pMXsIG) were introduced into DO11.10-T cells to prepare transformed cells. Binding abilities of these two kinds of transformed cells to labeled mDR6-hFcm and to labeled mDR6-hFcm deltaCRD1 was examined, and it was confirmed that binding ability of mDR6-hFcm deltaCRD1 increased to about 2.5 times of that of mDR6-hFcm (FIG. 22).

- IL2 production level of DO11.10-T cells stimulated with anti-CD3 antibody, mSdc1-His at final concentration 100 nM [1]: 50%
Molecule: mSdc1-His (ligand)

- binding ability relative to mDR6-hFcm [2]: ~2.5 times
B1: mDR6-hFcm deltaCRD1 (Fc fusion)
chain: QPEQKTLSLPGTYRHVDRTTGQVLCHDCSQPCPWPMIERLPCAALTDRECICPPGMYQSNGTCAPHTVCPVGWGVRKKGTENEDVRCKQCARGTFSDVPSSVMKCKAHTDCLGQNLEVVKPGTKETDNVCGMRLFFSSTNPPSSGTVTFSHPEHMESHDVPSSTYEPQGMNSTDSNSTASVRTKVPSGIEEGTVPDNTSSTSGKEGTNRTLPNPPQVTHQQAPHHRHILKLLPSSMEATGEKSSTAIKAPKRGHPRQNAHKHFDINEHL
modifications: labeled
notes: Derived from pcDNA/mDR6-hFcm; the Fc part is that of mDR6-hFcm; also called CRD1-deficient solubilized DR6 mutant; cysteine rich domain-deficient mDR6 mutant; not shown: human IgG Fc region
